Reference: publication PMC8803948, “TdfH selectively binds metal-loaded tetrameric calprotectin for zinc import” (Communications Biology, 2022)

Target: the molecule itself
Experiment: cryo-EM structure; TdfH-CP complex formed on a StrepTactinXT column (CP preincubated with CaCl2 and ZnCl2), eluted with desthiobiotin, in PBS pH 7.4, 0.02% LMNG; Titan Krios 300 kV; 6.1 Å; CP seen as a dimer of S100A8-S100A9 heterodimers (heterotetramer)

B1: human calprotectin (CP), heterodimer of S100A8 and S100A9 (complex)
chain 1: MLTELEKALNSIIDVYHKYSLIKGNFHAVYRDDLKKLLETECPQYIRKKGADVWFKELDINTDGAVNFQEFLILVIKMGVAAHKKSHEESHKE
chain 2: KMSQLERNIETIINTFHQYSVKLGHPDTLNQGEFKELVRKDLQNFLKKENKNEKVIEHIMEDLDTNADKQLSFEEFIMLMARLTWASHEKMHEGDEGPGHHHKPGLGEGTP
notes: S100A8, human, subunit of calprotectin; S100A9, human, subunit of calprotectin; with calcium and zinc it stands as a heterotetramer (two heterodimers) in the cryo-EM complex; also called S100A8-S100A9 heterodimer; copies: 1 + 1
For B1, the “stoichiometry N” value was 2.
